Results reported in patent publication US5679770A, “Polypeptide, DNA fragment encoding the same, drug composition containing the same and process for producing the same” (Mochida Pharmaceutical Co., Ltd., priority 1991, dated 1997).

T1: Human neutrophil elastase (Homo sapiens, UniProt P08246)
T1 construct: purchased CALBIOCHEM
T1 sequence (P08246 30-267): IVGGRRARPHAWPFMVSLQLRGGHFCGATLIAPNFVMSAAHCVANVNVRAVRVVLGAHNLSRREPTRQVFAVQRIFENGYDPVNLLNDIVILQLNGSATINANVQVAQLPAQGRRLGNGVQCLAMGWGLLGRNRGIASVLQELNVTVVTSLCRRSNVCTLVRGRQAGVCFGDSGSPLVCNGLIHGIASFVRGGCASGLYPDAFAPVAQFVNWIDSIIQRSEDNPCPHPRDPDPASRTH


Experiments:
[1] = biological target: T1, Human neutrophil elastase; experiment: Human elastase-inhibiting activity (substrate STANA); format: biochemical; details: for elastase-inhibiting activity, times higher than that of polypeptide Q19K/Y46D: relative to Q19K/Y46D; for elastase-inhibiting activity, times higher than that of polypeptide AN68: relative to control AN68
Experimental: The purified polypeptide of the present invention was dissolved in 100 μl of distilled water. The concentration of this solution was determined based on its bovine trypsin-inhibiting activity using UTI as a standard. The solution was then diluted to various concentration levels with 0.1% BSA/27 mM CaCl2 /133 mM Tris-HCl buffer (pH 7.5) for use in the activity measurement. The aforementioned AN68 was also diluted in the same manner for use as a control. Human elastase-inhibiting activities in the test samples and the control were measured in accordance with the method of Ogawa et al. (Ogawa, M. et al., Res. Commun. Chem. Pathol. Pharmacol., vol.55, pp.271-274, 1987) using a synthetic compound STANA (Peptide Institute Inc.) as a substrate.
Human neutrophil elastase (CALBIOCHEM) was dissolved in 27 mM CaCl2 /133 mM Tris-HCl buffer (pH 7.5) to a concentration of 100 μg/ml and the solution was further diluted with 0.1% BSA/27 mM CaCl2 /133 mM Tris-HCl buffer (pH 7.5) to prepare a 4 μg/ml elastase solution. 100 mM STANA solution was prepared by dissolving it in N-methyl-2-pyrrolidone and the solution was further diluted with 0.1% BSA/27 mM CaCl2 /133 mM Tris-HCl buffer (pH 7.5) to prepare a 20 mM STANA solution.
Next, 50 μl of the test sample or positive control was mixed with 50 μl of the elastase solution and 50 μl of 0.1% BSA/27 mM CACl2 /133 mM Tris-HCl buffer (pH 7.5). After incubation at 37° C. for 10 minutes, 50 μl of the STANA solution was added to the mixture to start the reaction. The reaction was carried out at 37° C. for 20 minutes and then stopped by adding 50 μl of 50% acetic acid solution to the reaction mixture. Thereafter, absorbance at a wavelength of 405 nm was measured using a spectrophotometer. In this instance, in order to eliminate absorbance of various solutions in the reaction product, a blank solution was prepared by mixing 50 μl of the elastase solution with 50 μl of 50% acetic acid and then with 50 μl of each test sample or the control, 50 μl of 0.1% BSA/27 mM CaCl2 /133 mM Tris-HCl buffer (pH 7.5) and with 50 μl of the STANA solution.
The results are shown in FIG. 54 and FIG. 55 and FIG. 67 to FIG. 69. In these figures, polypeptide concentration in the reaction solution is expressed as its bovine trypsin-inhibiting activity. Also, remaining human elastase activity was expressed by percentage based on the absorbance of a control reaction mixture in which 50 μl of the 0.1% BSA/27 mM CaCl2 /133 mM Tris-HCl buffer (pH 7.5) was used instead of the test sample or the control.

[2] = biological target: T2, human FXa (Homo sapiens, UniProt P00742); experiment: FXa-inhibiting activity (synthetic substrate S-2222); format: biochemical; details: relative to control AN68; concentration expressed as bovine trypsin-inhibiting activity
T2 construct: purchased American Diagnostica Inc
Experimental: The purified polypeptide of the present invention was dissolved in 100 μl of distilled water. Polypeptide concentration of this solution was determined based on its bovine trypsin-inhibiting activity measured in accordance with the above procedure (1) using the aforementioned UTI as a standard. The thus prepared solution was then diluted to various concentration levels with 0.1% BSA/150 mM NaCl/5 mM CaCl2 /50 mM Tris-HCl buffer (pH 8.3) for use in the activity measurement. Separately from this, a polypeptide TN70 (cf. Japanese Patent Application No. 3-325220) and polypeptide AN68 were purified respectively in accordance with the procedure of Example 2(4) from a culture supernatant of E. coli JE5505(pM552) (deposit No., FERM BP-3561) and E. coli JE5505(pM594) obtained by transforming E. coli JE5505 with the aforementioned plasmid pM594 obtained in Example 4. The thus purified polypeptide TN70 and AN68 were diluted to various concentration levels to be used as control solutions.
Using a synthetic compound S-2222 (Daiichi Pure Chemicals Co., Ltd.) as a substrate, FXa-inhibiting activities in the thus prepared test sample solution and control solution were measured in accordance with the method of Ohno et al. (Ohno H. et al., Thromb. Res., vol.19, pp.579-588, 1980) as follows. First, human FXa (American Diagnostica Inc.) was dissolved in distilled water to a final concentration of 10 PEU/ml and the solution was further diluted with the aforementioned 0.1% BSA/150 mM NaCl/5 mM CaCl2 /50 mM Tris-HCl buffer (pH 8.3) to prepare 0.1 PEU/ml of FXa solution. Separately from this, a 4 mM solution of S-2222 was prepared by dissolving it in distilled water and the solution was further diluted with the 0.1% BSA/150 mM NaCl/5 mM CaCl2 /50 mM Tris-HCl buffer (pH 8.3) to obtain a 2 mM solution of S-2222.
Next, 25 μl of the test sample or control solution was mixed with 100 μl of the 0.1% BSA/150 mM NaCl/5 mM CaCl2 /50 mM Tris-HCl buffer (pH 8.3) and 25 μl of the FXa solution. After incubating statically at 37° C. for 10 minutes, 100 μl of the S-2222 solution was added to start the reaction. The reaction was carried out at 37° C. for 30 minutes and then stopped by adding 50 μl of 50% acetic acid solution to the reaction mixture. Thereafter, absorbance at a wavelength of 405 nm was measured using a spectrophotometer. In this instance, in order to eliminate absorbancy of various contents in the reaction mixture other than the reaction product, a blank solution was prepared by mixing 25 μl of the FXa solution with 50 μl of 50% acetic acid and then with 25 μl of each test sample or the control solution, 100 μl of the 0.1% BSA/150 mM NaCl/5 mM CaCl2 /50 mM Tris-HCl buffer (pH 8.3) and with 100 μl of the S-2222 solution.
The results are shown in FIG. 45 to FIG. 53 and FIG. 66. In these figures, polypeptide concentration in the reaction solution was expressed as its bovine trypsin-inhibiting activity. Also, residual human FXa activity was expressed by percentage based on the absorbance of a control reaction mixture in which 25 μl of the 0.1% BSA/150 mM NaCl/5 mM CaCl2 /50 mM Tris-HCl buffer (pH 8.3) was used instead of the test sample.

T2 sequence (P00742 235-488 limits assumed): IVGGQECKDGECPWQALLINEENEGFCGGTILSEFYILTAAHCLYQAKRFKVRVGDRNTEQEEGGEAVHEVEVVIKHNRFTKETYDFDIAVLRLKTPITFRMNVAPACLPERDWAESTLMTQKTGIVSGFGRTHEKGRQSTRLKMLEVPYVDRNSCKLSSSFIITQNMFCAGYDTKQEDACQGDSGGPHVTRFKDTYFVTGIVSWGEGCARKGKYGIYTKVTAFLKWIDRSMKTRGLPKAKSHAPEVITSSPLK
T2 sequence (P00742 41-179 partner limits assumed): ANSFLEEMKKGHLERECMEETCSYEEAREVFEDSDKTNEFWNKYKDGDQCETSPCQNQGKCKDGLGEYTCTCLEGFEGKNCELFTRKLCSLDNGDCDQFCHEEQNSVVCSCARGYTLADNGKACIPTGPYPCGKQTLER

Molecule | elastase-inhibiting activity, times higher than that of polypeptide Q19K/Y46D [1] | elastase-inhibiting activity, times higher than that of polypeptide AN68 [1] | FXa-inhibiting activity, times higher than that of polypeptide AN68 [2] | elastase-inhibiting activity, times higher than that of polypeptide Q19K/Y46E ([1]; relative to Q19K/Y46E from E. coli JE5505(pM721))
R11D/Q19K/Y46D: formula 1 sequence with Asp for position 7 Arg, Lys for position 15 Gln, Asp for position 42 Tyr; SEQ. I.D. NO. 38 (protein) AACNLPIVDGPCRAFIKLWAFDAVKGKCVLFPYGGCQGNGNKFDSEKECREYCGVPGDGDEELLRFSN | about 3 times | about 3 times | about 5 times | –
R11E/Q19K/Y46E: formula 1 sequence with Glu for position 7 Arg, Lys for position 15 Gln, Glu for position 42 Tyr; SEQ. I.D. NO. 40 (protein) AACNLPIVEGPCRAFIKLWAFDAVKGKCVLFPYGGCQGNGNKFESEKECREYCGVPGDGDEELLRFSN | – | about 5 times | about 13 times | 6 times
R11L/Q19K/Y46D: formula 1 sequence with Leu for position 7 Arg, Lys for position 15 Gln, Asp for position 42 Tyr; SEQ. I.D. NO. 39 (protein) AACNLPIVLGPCRAFIKLWAFDAVKGKCVLFPYGGCQGNGNKFDSEKECREYCGVPGDGDEELLRFSN | about 2 times | about 2 times | about 16 times | –
R11A/Q19K/Y46D: formula 1 sequence with Ala for position 7 Arg, Lys for position 15 Gln, Asp for position 42 Tyr; SEQ. I.D. NO. 43 (protein) AACNLPIVAGPCRAFIKLWAFDAVKGKCVLFPYGGCQGNGNKFDSEKECREYCGVPGDGDEELLRFSN | about 4 times | about 4 times | about 9 times | –

Continued, values first:

elastase-inhibiting activity, times higher than that of polypeptide Q19K/Y46D [1] | elastase-inhibiting activity, times higher than that of polypeptide AN68 [1] | FXa-inhibiting activity, times higher than that of polypeptide AN68 [2] | elastase-inhibiting activity, times higher than that of polypeptide Q19K/Y46E ([1]; relative to Q19K/Y46E from E. coli JE5505(pM721)) | Molecule
about 3 times | about 3 times | about twenty | – | R11Q/Q19K/Y46D: formula 1 sequence with Gln for position 7 Arg, Lys for position 15 Gln, Asp for position 42 Tyr; SEQ. I.D. NO. 37 (protein) AACNLPIVQGPCRAFIKLWAFDAVKGKCVLFPYGGCQGNGNKFDSEKECREYCGVPGDGDEELLRFSN
about 5 times | about 5 times | about 10 times | – | R11N/Q19K/Y46D: formula 1 sequence with Asn for position 7 Arg, Lys for position 15 Gln, Asp for position 42 Tyr; SEQ. I.D. NO. 41 (protein) AACNLPIVNGPCRAFIKLWAFDAVKGKCVLFPYGGCQGNGNKFDSEKECREYCGVPGDGDEELLRFSN
about 10 times | about 10 times | about 8 times | – | R11S/Q19K/Y46D: formula 1 sequence with Ser for position 7 Arg, Lys for position 15 Gln, Asp for position 42 Tyr; SEQ. I.D. NO. 42 (protein) AACNLPIVSGPCRAFIKLWAFDAVKGKCVLFPYGGCQGNGNKFDSEKECREYCGVPGDGDEELLRFSN
